From patent EP4242225A1
Where two headings read alike, the source gives them in different places.

B1: Nb 1.10 (VHH)
VHH: QVQLVESGGGSVQAGGSLRLSCAASGYTYSTCRKGWYRQAPGKERELVASITADGATYYLDSVKGRLTISQDNAKNTVYLQMNSLKPEDTAVYYCAASVKDFTCTFNSWGQGTQVTVSS
B2: hcAb 1.10 (Fc fusion)
heavy: B1 VHH
B3: hcAb 2.15 (Fc fusion)
heavy: QVQLVESGGGSVQAGGSLKLSCAASGYASWARKCIGWFRQAPGQEREGVAAIFDFDGSTYYSDSVKGRFTISGDNAKNTVSLQMNSLLPKDTAVYYCTVAFGTCDNWYRGRGDYWGQGTQVTVSS
B4: Nb 2.15 (VHH)
VHH: B3 heavy

Experiments:
Conditions in all cases: remark: other sources report otherwise
[1] = biological target: T1, RBD-FH, monomeric RBD (332-534) with a FLAG peptide and an 8xHis-tag at the C-terminus (SARS-CoV-2), P0DTC2
[2] = biological target: RBD-Fc, Wuhan strain (WA1) (SARS-CoV-2; human), P0DTC2
[3] = biological target: T1, RBD-FH, monomeric RBD (332-534) with a …; remark: listed apart in the source

Binder	Kd [1] [nM]	koff [1] [s⁻¹]	kon [1] [M⁻¹ s⁻¹]	% inhibition of RBD binding to hACE2 [2] [%]	Kd [3] [nM]	koff [3] [s⁻¹]	kon [3] [M⁻¹ s⁻¹]
B1	3.96	0.00137	345000				
B2				> 95	0.35	0.000237	679000
B3				> 95	0.08	0.00012	1.42e+06
B4	0.39	0.000778	2.02e+06				
